Assay [1] deals with chimeric 0401-IE class II molecule on cells of transgenic mice (human/murine chimera). Kind of assay: cell-based or functional assay.
In assay [2] the target is T1, human MHC class II DR protein (DRA*0101/DRB1*0401), purified from PRIESS cells (human, UniProt P01903 26-254; P01911 30-266, limits assumed).
T1 construct: mature; also called HLA-DR protein; MHCII
T1 MHC II alpha: not shown
T1 MHC II beta: not shown
As to the kind of experiment: SPR (BIAcore), MHCII on CM5 chip.

Assay [3] deals with T1, human MHC class II DR protein …. As to the kind of experiment: SPR (BIAcore), MHCII on CM5 chip.
Assay [4] shares this target. As to the kind of experiment: ELISA, coated antigen, Fab 100 ng/well, read at 370 nm. As to the method: (§1) After washing in PBS the anti-human IgG F(ab')_2-peroxidase-conjugate at a 1:10,000 dilution in TBS (supplemented with 5% w/v non-fat drymilk/0.05% v/v Tween 20) was added to each well for 1 h. Final washes were carried out in PBS followed the addition the substrate POD (Roche).
Background: In an ELISA, binding on a coated surface is turned into a signal by an enzyme label.

Assay [5] has as its target T2, BSA (bovine, UniProt P02769 25-607).
T2 construct: negative control antigen; also called bovine serum albumine
The description is as above. How it is done: as §1

The target in assay [6] is T3, lysozyme.
T3 construct: negative control antigen
Described as above. As to the method: as §1

Substitutions are numbered along the chain they refer to. Where two headings read alike, the source gives them in different places.

T2 sequence (P02769 25-607 limits assumed): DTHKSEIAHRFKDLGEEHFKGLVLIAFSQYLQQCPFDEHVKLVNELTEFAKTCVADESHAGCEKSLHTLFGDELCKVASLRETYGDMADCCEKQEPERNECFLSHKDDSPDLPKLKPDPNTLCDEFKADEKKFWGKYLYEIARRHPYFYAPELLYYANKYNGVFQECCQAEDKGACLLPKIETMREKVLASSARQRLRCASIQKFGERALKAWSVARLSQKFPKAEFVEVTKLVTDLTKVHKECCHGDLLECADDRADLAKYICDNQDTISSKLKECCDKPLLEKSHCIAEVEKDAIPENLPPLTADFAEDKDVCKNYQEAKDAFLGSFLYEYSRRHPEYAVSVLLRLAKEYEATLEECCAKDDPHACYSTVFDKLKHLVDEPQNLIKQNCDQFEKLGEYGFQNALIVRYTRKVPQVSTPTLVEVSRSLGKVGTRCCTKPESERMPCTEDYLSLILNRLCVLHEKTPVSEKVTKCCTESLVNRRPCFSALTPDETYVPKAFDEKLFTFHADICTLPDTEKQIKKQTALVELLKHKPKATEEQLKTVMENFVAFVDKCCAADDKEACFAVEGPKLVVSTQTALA
T3 sequence (P00698 19-147): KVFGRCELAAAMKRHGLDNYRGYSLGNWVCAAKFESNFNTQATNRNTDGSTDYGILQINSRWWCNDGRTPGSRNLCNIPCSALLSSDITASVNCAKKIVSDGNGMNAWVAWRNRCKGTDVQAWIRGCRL

B1: MS-GPC-8-6-47 Fab (Fab, V domains shown)
VH: QVQLKESGPALVKPTQTLTLTCTFSGFSLSTSGVGVGWIRQPPGKALEWLALIDWDDDKYYSTSLKTRLTISKDTSKNQVVLTMTNMDPVDTATYYCARSPRYRGAFDYWGQGTLVTVSS
VL: DIVLTQPPSVSGAPGQRVTISCSGSESNIGSNYVSWYQQLPGTAPKLLIYDNNQRPSGVPDRFSGSKSGTSASLAITGLQSEDEADYYCQSYDYDHYVFGGGTKLTVLG
notes: Fab: VH-CH1 with FLAG tag and STREP tag II, VL-CL; VH residue 1 is Q in Fab
For B1, in assay [1], the “IC50 of inhibition of IL-2 secretion from T-Hyb 1 cells” value (shortened to “IC50 of inhibition of IL-2 secretion”) was 2.6 nM (half the concentration of the Fab) and the “Maximum inhibition(%) of IL-2 secretion” value stood at 100%. Besides, in assay [2], binding was characterised by a dissociation constant (Kd) of 3.18 nM; the koff (in general, a measure of how fast the partners let go of each other) is 0.00062 s⁻¹; the kon (in general, a measure of how fast the partners come together) is 197000 M⁻¹ s⁻¹. Besides, in assay [3], the Kd (as a rule, the free concentration of one partner at which half of the binding sites on the other are occupied at equilibrium, for simple one-to-one binding) is 3.2 nM; the koff is 0.00062 s⁻¹; the kon was 200000 M⁻¹ s⁻¹. The molecule further showed an ELISA signal in assay [4] of 1.4. Besides, in assay [5], the ELISA signal stood at 0.008 and the binding result is “no binding (tested: 100 ng/well)”. The ELISA signal in assay [6] was 0.013.

B2: MS-GPC-8-6-27 Fab (Fab, V domains shown)
VH: B1 VH
VL: B1 VL with E26D, S31A, S35T
notes: as for B1
B2: in assay [1], the “IC50 of inhibition of IL-2 secretion” value was 3 nM (half the concentration of the Fab) and the “Maximum inhibition(%) of IL-2 secretion” value was determined as 100%. Moreover, in assay [2], binding was put at a Kd of 6.3 nM, the koff came to 0.0011 s⁻¹ and the kon is 180000 M⁻¹ s⁻¹. Moreover, in assay [3], the Kd came to 6.3 nM, the koff was 0.0011 s⁻¹ and the kon was 180000 M⁻¹ s⁻¹. The molecule further registered an ELISA signal in assay [4] of 1.3. Also, in assay [5], the ELISA signal stood at 0.003 and the binding result was “no binding (tested: 100 ng/well)”. Further, the ELISA signal in assay [6] came to 0.006.

B3: MS-GPC-8-10-57 Fab (Fab, V domains shown)
VH: B1 VH
VL: B1 VL with S31N, S35Q, Y94L, D95I, H96R, Y97H
notes: Fab: VH-CH1 with FLAG tag and STREP tag II, VL-CL; VH residue 1 is Q in Fab; also called 1C7277
B3: in assay [1], the “IC50 of inhibition of IL-2 secretion” value is 2.9 nM (half the concentration of the Fab) and the “Maximum inhibition(%) of IL-2 secretion” value is 100%. In assay [4], this molecule gave an ELISA signal of 1.26. Moreover, in assay [5], the ELISA signal is 0.003 and the binding result was “no binding (tested: 100 ng/well)”. This molecule yielded an ELISA signal in assay [6] of 0.014.

B4: MS-GPC-8-27-10 Fab (Fab, V domains shown)
VH: B1 VH
VL: B1 VL with S31A, S35N, Y94M, D95N, H96V, Y97H
notes: as for B1
With B4, in assay [1], the “IC50 of inhibition of IL-2 secretion” value was 7.3 nM (half the concentration of the Fab) and the “Maximum inhibition(%) of IL-2 secretion” value stood at 100%. Also, in assay [2], the Kd is 3.01 nM, the koff came to 0.00053 s⁻¹ and the kon came out at 176000 M⁻¹ s⁻¹. Also, in assay [3], the Kd turned out to be 3 nM, the koff was 0.00053 s⁻¹ and the kon stood at 180000 M⁻¹ s⁻¹. The molecule also returned an ELISA signal in assay [4] of 1.49.

(Values after US7521047 (GPC BIOTECH, dated 2009).)
